Source: publication PMC4506781

Assays:
Test in all cases: cross-linking
[1] = target: HIV-1 CA P207C/T216C, assembled into tubes (HIV-1)
[2] = target: CA P207C/T216C in isolated HIV-1 cores (R9.P207C/T216C) (HIV-1)
[3] = target: CA A14C/E45C in isolated HIV-1 cores (R9.A14C/E45C) (HIV-1)
[4] = target: HIV-1 CA A14C/E45C, assembled into tubes (HIV-1)

“HIV-1 CA P207C/T216C, assembled into tubes (natural protein)” gave a stoichiometry N [1] of 3.

For “CA P207C/T216C in isolated HIV-1 cores (R9.P207C/T216C) (natural protein)”, the stoichiometry N [2] was 3.

Work on “CA A14C/E45C in isolated HIV-1 cores (R9.A14C/E45C) (natural protein)” yielded a stoichiometry N [3] of 6.

“HIV-1 CA A14C/E45C, assembled into tubes (natural protein)” gave a stoichiometry N [4] of 6.
